# Target: T1, SOD1(A4V)-GFP (Homo sapiens, UniProt P00441, A5V)
# T1 construct: polyHis; expressed in transfected cells; host or cells: E. coli Origami 2(DE3) (BL21(DE3) for the FACS screen)
# Assay: Fluorescence of E. coli cells co-expressing SOD1(A4V)-GFP and cyclic peptide
# Format: cell-based
# Conditions: co-expression of cyclic peptide; compared to random cyclic peptides from initial library
# Text: Electrocompetent E. coli BL21(DE3) cells (Novagen, USA) carrying either the expression vector pETSOD1(A4V)-GFP, which produces SOD1(A4V)-GFP under control of the strong bacteriophage T7 promoter, or pETAβ42-GFP, which produces Aβ42-GFP under control of the T7 promoter, were co-transformed with the combined pSICLOPPS-NuX1X2X3-X5 vector library. Approximately 10^8 transformants carrying both the vector library and either pETSOD1(A4V)-GFP or pETAβ42-GFP vectors were harvested, pooled together, and grown in Luria-Bertani (LB) liquid medium containing either 0.005% (pETSOD1(A4F)-GFP) or 0.002% (pETAβ42-GFP) L-arabinose—the inducer of cyclic peptide production—at 37° C. with shaking. When the optical density at 600 nm (OD600) of the bacterial culture was about 0.5, 0.01 (pETSOD1(A4F)-GFP) or 0.1 (pETAβ42-GFP) mM isopropyl-β-D-thiogalactoside (IPTG) was added to the medium to induce overexpression of the reporter. […] The isolated cells were re-grown and screened for additional rounds in an identical manner until the desired enrichment in high-fluorescence clones was achieved.
# For SOD1 or SOD1-GFP production, BL21(DE3) (Novagen, USA) or Origami 2(DE3) cells (Novagen, USA) were transformed with the corresponding SOD1- or SOD1-GFP-encoding vector, either with the appropriate pSICLOPPS vector or alone. […]
# Bacterial cells corresponding to 1 mL culture with OD600=1 were harvested by centrifugation and re-suspended in 100 μL phosphate-buffered saline (PBS), transferred to a 96-well FLUOTRAC 200 plate (Greiner Bio One International, Austria), and their fluorescence was measured using a TECAN Safire II-Basic plate reader (Tecan, Austria). Excitation was set at 488 nm and emission was measured at 510 nm.
# T1 sequence (P00441 whole entry A5V): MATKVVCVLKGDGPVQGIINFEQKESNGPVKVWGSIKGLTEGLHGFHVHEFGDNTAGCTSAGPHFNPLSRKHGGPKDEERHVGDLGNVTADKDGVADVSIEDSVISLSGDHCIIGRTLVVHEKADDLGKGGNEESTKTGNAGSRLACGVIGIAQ
substance,measurement,value
cyclo-TWSVW (cyclic) [SOD1C5-4],SOD1(A4V)-GFP fluorescence of E. coli cells,highest levels of cellular SOD1(A4V)-GFP fluorescence

# Reference: patent publication US12559863B2, “Macrocyclic modulators of disease associated protein misfolding and aggregation” (RESQ BIOTECH, priority 2017, dated 2026)
